To fix the notation:
B1: POU domain, class 4, transcription factor 2, residues 256 to 327; numbered along this chain, Q12837 (parent)
chain: RDLEAFAERFKQRRIKLGVTQADVGSALANLKIPGVGSLSQSTICRFESLTLSHNNMIALKPILQAWLEEAE

± gives the uncertainty stated by the source.

The variants in the data set derive from B1. Put plainly: abundance fitness (aPCA) (normalised: wild type 0, dead -1); higher = more abundant; growth selection in yeast, the domain comes from the species named. The conditions noted are these: Homo sapiens.
On to RDLEAFAERFKQRRIKLGVTQADVGSALANLKIPGVGSLSQSTICRFESLTKSHNNMIALKPILQAWLEEAE [L52K], for which the abundance fitness was -0.163 ± 0.17.

For the variant RDLEAFAERFKQRRIKLGVTQADVGSALANLKIPGVGSLSQSTICRFESLTESHNNMIALKPILQAWLEEAE [L52E], the abundance fitness is -0.732 ± 0.22.

As for RDLEAFAERFKQRRIKLGVTQADVGSALANLKIPGVGSLSQSTICRFESLTPSHNNMIALKPILQAWLEEAE [L52P], the abundance fitness is -0.887 ± 0.12.

For RDLEAFAERFKQRRIKLGVTQADVGSALANLKIPGVGSLSQSTICRFESLTMSHNNMIALKPILQAWLEEAE [L52M], the abundance fitness was -0.324 ± 0.19.

Take RDLEAFAERFKQRRIKLGVTQADVGSALANLKIPGVGSLSQSTICRFESLTDSHNNMIALKPILQAWLEEAE [L52D]: the abundance fitness is -0.472 ± 0.18.

As for RDLEAFAERFKQRRIKLGVTQADVGSALANLKIPGVGSLSQSTICRFESLTGSHNNMIALKPILQAWLEEAE [L52G], the abundance fitness was -0.679 ± 0.12.

Consider RDLEAFAERFKQRRIKLGVTQADVGSALANLKIPGVGSLSQSTICRFESWTLSHNNMIALKPILQAWLEEAE [L50W], for which the abundance fitness was -0.791 ± 0.19.

Turning to RDLEAFAERFKQRRIKLGVTQADVGSALANLKIPGVGSLSQSTICRFESYTLSHNNMIALKPILQAWLEEAE [L50Y], the abundance fitness is -0.478 ± 0.37.

In the case of RDLEAFAERFKQRRIKLGVTQADVGSALANLKIPGVGSLSQSTICRFESLTLSHKNMIALKPILQAWLEEAE [N55K], the abundance fitness was -0.016 ± 0.15.

Take RDLEAFAERFKQRRIKLGVTQADVGSALANLKIPGVGSLSQSTICRFESLTLSHLNMIALKPILQAWLEEAE [N55L]: the abundance fitness was -0.121 ± 0.055.

RDLEAFAERFKQRRIKLGVTQADVGSALANLKIPGVGSLSQSTICRFESLTLSHFNMIALKPILQAWLEEAE [N55F]: the abundance fitness was -0.396 ± 0.13.

On to RDLEAFAERFKQRRIKLGVTQADVGSALANLKIPGVGSLSQSTICRFESLTLSHSNMIALKPILQAWLEEAE [N55S], for which the abundance fitness was found to be 0.013 ± 0.051.

On to RDLEAFAERFKQRRIKLGVTQADVGSALANLKIPGVGSLSQSTICRFESLTLSHGNMIALKPILQAWLEEAE [N55G], for which the abundance fitness was -0.009 ± 0.098.

Regarding RDLEAFAERFKQRRIKLGVTQADVGSALANLKIPGVGSLSQSTICRFESLTLSHDNMIALKPILQAWLEEAE [N55D], the abundance fitness is -0.009 ± 0.12.

Turning to RDLEAFAERFKQRRIKLGVTQADVGSALANLKIPGVGSLSQSTICRFESLTLSHANMIALKPILQAWLEEAE [N55A], the abundance fitness was 0.137 ± 0.086.

On to RDLEAFAERFKQRRIKLGVTQADVGSALANLKIPGVGSLSQSTICRFESLTLSHENMIALKPILQAWLEEAE [N55E], for which the abundance fitness is -0.184 ± 0.39.

As for RDLEAFAERFKQRRIKLGVTQADVGSALANLKIPGVGSLSQSTICRFESLTLSHMNMIALKPILQAWLEEAE [N55M], the abundance fitness was -0.253 ± 0.15.

In the case of RDLEAFAERFKQRRIKLGVTQADVGSALANLKIPGVGSLSQSTICRFESLTLSHRNMIALKPILQAWLEEAE [N55R], the abundance fitness was -0.055 ± 0.043.

With RDLEAFAERFKQRRIKLGVTQADVGSALANLKIPGVGSLSQSTICRFESLTLSHQNMIALKPILQAWLEEAE [N55Q], the abundance fitness was found to be 0.073 ± 0.088.

Take RDLEAFAERFKQRRIKLGVTQADVGSALANLKIPGVGSLSQSTICRFESLTLSHHNMIALKPILQAWLEEAE [N55H]: the abundance fitness is -0.326 ± 0.14.

Take RDLEAFAERFKQRRIKLGVTQADVGSALANLKIPGVGSLSQSTICRFESLTLSHINMIALKPILQAWLEEAE [N55I]: the abundance fitness is -0.197 ± 0.13.

In the case of RDLEAFAERFKQRRIKLGVTQADVGSALANLKIPGVGSLSQSTICRFESLWLSHNNMIALKPILQAWLEEAE [T51W], the abundance fitness is -0.78 ± 0.37.

With RDLEAFAERFKQRRIKLGVTQADVGSALANLKIPGVGSLSQSTICRFESLRLSHNNMIALKPILQAWLEEAE [T51R], the abundance fitness is -0.111 ± 0.067.

For RDLEAFAERFKQRRIKLGVTQADVGSALANLKIPGVGSLSQSTICRFESLPLSHNNMIALKPILQAWLEEAE [T51P], the abundance fitness was -1.08 ± 0.32.

Consider RDLEAFAERFKQRRIKLGVTQADVGSALANLKIPGVGSLSQSTICRFESLELSHNNMIALKPILQAWLEEAE [T51E], for which the abundance fitness is -0.059 ± 0.17.

RDLEAFAERFKQRRIKLGVTQADVGSALANLKIPGVGSLSQSTICRFESLMLSHNNMIALKPILQAWLEEAE [T51M]: the abundance fitness amounted to 0.077 ± 0.096.

RDLEAFAERFKQRRIKLGVTQADVGSALANLKIPGVGSLSQSTICRFESLVLSHNNMIALKPILQAWLEEAE [T51V]: the abundance fitness is -0.367 ± 0.079.

RDLEAFAERFKQRRIKLGVTQADVGSALANLKIPGVGSLSQSTICRFESLYLSHNNMIALKPILQAWLEEAE [T51Y]: the abundance fitness is -0.567 ± 0.21.

Regarding RDLEAFAERFKQRRIKLGVTQADVGSALANLKIPGVGSLSQSTICRFESLFLSHNNMIALKPILQAWLEEAE [T51F], the abundance fitness is -0.414 ± 0.11.

As to RDLEAFAERFKQRRIKLGVTQADVGSALANLKIPGVGSLSQSTICRFESLSLSHNNMIALKPILQAWLEEAE [T51S], the abundance fitness came to 0.018 ± 0.028.

Regarding RDLEAFAERFKQRRIKLGVTQADVGSALANLKIPGVGSLSQSTICRFESLHLSHNNMIALKPILQAWLEEAE [T51H], the abundance fitness was -0.232 ± 0.36.

Consider RDLEAFAERFKQRRIKLGVTQADVGSALANLKIPGVGSLSQSTICRFESLDLSHNNMIALKPILQAWLEEAE [T51D], for which the abundance fitness is -0.295 ± 0.39.

Take RDLEAFAERFKQRRIKLGVTQADVGSALANLKIPGVGSLSQSTICRFESLALSHNNMIALKPILQAWLEEAE [T51A]: the abundance fitness was -0.035 ± 0.033.

As to RDLEAFAERFKQRRIKLGVTQADVGSALANLKIPGVGSLSQSTICRFESLCLSHNNMIALKPILQAWLEEAE [T51C], the abundance fitness is -0.077 ± 0.11.

As for RDLEAFAERFKQRRIKLGVTQADVGSALANLKIPGVGSLSQSTICRFESLQLSHNNMIALKPILQAWLEEAE [T51Q], the abundance fitness is -0.041 ± 0.086.

For RDLEAFAERFKQRRIKLGVTQADVGSALANLKIPGVGSLSQSTICRFESLLLSHNNMIALKPILQAWLEEAE [T51L], the abundance fitness is -0.256 ± 0.064.

With RDLEAFAERFKQRRIKLGVTQADVGSALANLKIPGVGSLSQSTICRFESLKLSHNNMIALKPILQAWLEEAE [T51K], the abundance fitness came out at 0.264 ± 0.16.

Consider RDLEAFAERFKQRRIKLGVTQADVGSALANLKIPGVGSLSQSTICRFESLGLSHNNMIALKPILQAWLEEAE [T51G], for which the abundance fitness is -0.181 ± 0.058.

These data come from the Human Domainome abundance scans (Beltran et al. 2025).
